Experiment: yeast display, Sf9 membrane polyspecificity reagent, FACS + sequencing; frameworks hold sequencing errors
Outline: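 Using colony PCR, genes from sorted yeast display clones were amplified, then sequenced on MiSeq at 2 × 250 and filtered by CDR length. The clones had been stained with 10% biotinylated, detergent-solubilized Sf9 membrane reagent for 1 hour at 4 °C and sorted by FACS into low and high (top ~1%) gates on anti-HA and streptavidin fluorescence. Polyreactivity labels come from the gate of origin.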
In the case of “QVQLVESGGGLVQAGGSLRLSCAASGRTFLFNGMGWYRQAPGKERELVASITRGGSTYADSVKGRFTISRDNAKNTGYVQMNSLNPEDTAVYDCNAYFWFPYNYWGQGTQVTVSS”, the “polyreactivity (PSR sort gate)” value is reported as “high polyreactivity”.
For “QVQLVESGGGLVQAGGSLRLSCAASGRTFLGYAMGCYRQAPGKERELVATITKRGSSTYYADSVKGRFTISRDNANNTVYLQMTSLKPEDTAVYYCAARRYPRRFAIDYWGQGTQVTVSS”, the “polyreactivity (PSR sort gate)” value was “high polyreactivity”.
With “QVQLVESGGGLVQAGGSLRLSCAASGRTFLIYAMGWYRQAPGKERELVAAINFSGGNTYYADSVKGRFTISRDNAKNTVYLQMNSLKPEDTAVYYCAARYRIGNNGYEYWGQGTQVTVSS” the “polyreactivity (PSR sort gate)” value was “low polyreactivity”.
With “QVQLVESGGGLVQAGGSLRLSCAASGRTFLLNAMGWYRQAPGKERELVAAITRSGVITYYADSVKGRFTISRDNAKNTVYLQMNSLKPEDTAVYYCAAQLRYSYLRPSYYYWGQGTQVTVSS” the “polyreactivity (PSR sort gate)” value was “high polyreactivity”.
For “QVQLVESGGGLVQAGGSLRLSCAASGRTFLLYAMGWYRQAPGKERELVAAITWGGGSTYYADSVKGRFTISRDNAKNTVYLQMNSLKPEDTAVYYCAADGSWHGYGYWGQGTQVTVSS”, the “polyreactivity (PSR sort gate)” value was “low polyreactivity”.
In the case of “QVQLVESGGGLVQAGGSLRLSCAASGRTFLPYAMGWYRQPPWKERELVAAISYRGVSTYYADSVKGRFTISRDNAKYSVYLQMNSLKAEDTAVYYCAARSWANYDFWGHGTQVTVSS”, the “polyreactivity (PSR sort gate)” value is reported as “high polyreactivity”.
With “QVQLVESGGGLVQAGGSLRLSCAASGRTFLRNAMGWYRPAPGKERELVAAITSSGGRTYYADSVKGRFTISRDNAKNTVYLQMNSLKPEDTAVYYCATDTGWPGRDYWGQGPQVTVSS” the “polyreactivity (PSR sort gate)” value was “high polyreactivity”.
For “QVQLVESGGGLVQAGGSLRLSCAASGRTFLRYAMGWYRQAPGKERELVAAITYGGRTNYADSVKGRFTISRDNAKNTVYLQMNSLKPEDTAVYYCAADRTYYYGLRVYYWGQGTQVTVSS”, the “polyreactivity (PSR sort gate)” value was “high polyreactivity”.
In the case of “QVQLVESGGGLVQAGGSLRLSCAASGRTFLSNAMGWYRQEPGKERELVAAINSGDSTYYAYSVKGRFTISRYNAKNTVYLQMNSLKPEDTAVYYCAAAFYYRRMYYWGKGTQVTVSS”, the “polyreactivity (PSR sort gate)” value is reported as “high polyreactivity”.
In the case of “QVQLVESGGGLVQAGGSLRLSCAASGRTFLSYAMGWYRQAPGKEREFVASITLSGGSTYYADSVKGRFTISRDNAKNTVYLQMNSLKPEDTAVYYCNAELYWLPYDYWGQGTQVTVSS”, the “polyreactivity (PSR sort gate)” value is reported as “low polyreactivity”.
In the case of “QVQLVESGGGLVQAGGSLRLSCAASGRTFLSYAMGWYRQAPGKERELVATITRRGGSTYYADSVKGRFTISRDNAKNTVYLQMNSLKPEDTAVYYCAAYYRQYSSSEFGYWGQGTQVTVSS”, the “polyreactivity (PSR sort gate)” value is reported as “high polyreactivity”.
In the case of “QVQLVESGGGLVQAGGSLRLSCAASGRTFLSYTMGWYRQATGKERELVAAITTSGGSTNYADSVKGRFSISRDTAKNTVYLQMNRLKPEDTAVYYCADEWSVYFNDPRSDYWGQGTQVTVSS”, the “polyreactivity (PSR sort gate)” value is reported as “high polyreactivity”.
With “QVQLVESGGGLVQAGGSLRLSCAASGRTFLTYAMGWYRQAPGKERELVAAITDGDSTNYADSVKGRFTISRDNAKNTVYLQMNSLKPEDTAVYYCNADSLAYRYYYWGKGTQVTVSS” the “polyreactivity (PSR sort gate)” value was “high polyreactivity”.
In the case of “QVQLVESGGGLVQAGGSLRLSCAASGRTFLVNAMGWYRQAPGKERELVAVITRGGSTNYADSVKGRFTISRDNAKNTVYLQMNSLKPEDTAVYYCAAEAYYGLWMDYWGQGTQVTVSS”, the “polyreactivity (PSR sort gate)” value is reported as “low polyreactivity”.
With “QVQLVESGGGLVQAGGSLRLSCAASGRTFLVYAMGWYRQAPGKDRELVAAISSDGSTHYADSVKGRFTISRDNAKKTVYLQMNSLHPEDTAVYYCARDYYAFSYLYDYWGQGTQVTVSS” the “polyreactivity (PSR sort gate)” value was “low polyreactivity”.
In the case of “QVQLVESGGGLVQAGGSLRLSCAASGRTFLVYARGWYRQAPGKERELVATIRASTGSTYADSVKGRFTISRDNAKNTVYLQMNSLKPEDTAVYYCAAQPRYRHQTYNYWGQGTQVTVSS”, the “polyreactivity (PSR sort gate)” value is reported as “high polyreactivity”.
With “QVQLVESGGGLVQAGGSLRLSCAASGRTFLVYTMGWYRQAPGKERELVAAISWSDGSTYYADSVKGRFTISRDNAKNTVYLQMNSLKPEDTAVYYCAARRTGYLYRYGYWGQGTQVTVSS” the “polyreactivity (PSR sort gate)” value was “low polyreactivity”.
With “QVQLVESGGGLVQAGGSLRLSCAASGRTFLWYAMGWYRQAPGKERELVAAITTAGSTYYADSVKGLFTISRDNAKNTVYLLMNSLKPEDTAVYYCNRLTYAYPPPVLGVGHDSWGQGTQVTVSS” the “polyreactivity (PSR sort gate)” value was “low polyreactivity”.
In the case of “QVQLVESGGGLVQAGGSLRLSCAASGRTFLWYDMGWYRQAPGKERELVAGITSDGITYYADSVKGRFTISRDNAKNTVNLQMNSLKPEDTAVYYCAADGIYPDAVYFGYPMYYWGQGTQVTVSS”, the “polyreactivity (PSR sort gate)” value is reported as “low polyreactivity”.
With “QVQLVESGGGLVQAGGSLRLSCAASGRTFLYNAMGWYREAPGTERELVAAISTNGSSTYYADSVKGRFTISRDNAKNTVYLQMNSLKPEDTAVYYCAAQPPLDYEFPYRYGYWGQGTQVTVSS” the “polyreactivity (PSR sort gate)” value was “low polyreactivity”.
In the case of “QVQLVESGGGLVQAGGSLRLSCAASGRTFLYNVMGWYRQAPGKERELVAAITSGGRTYYADSVKGRFTISRDNAKNTVYLQMNSLKPEVTAVYYCAADPYFYYYGYDYWGQGTQVTVSS”, the “polyreactivity (PSR sort gate)” value is reported as “low polyreactivity”.
For “QVQLVESGGGLVQAGGSLRLSCAASGRTFLYYAMGWYRQAPGKERELVAAITWSGGSTYYADSVKGRFTISRDNAKNTVYLQMNSLKPEDTAVYYCAALGWIDWYWQPGMDYWGQGTQVTVSS”, the “polyreactivity (PSR sort gate)” value was “high polyreactivity”.
For “QVQLVESGGGLVQAGGSLRLSCAASGRTFLYYAMGWYRQAPGKERELVASISTGGSTNYADSVKGRFTISRDNAKNTVYLQMNSLKPEDTAVYYCATEYPYSYFSIAHYHHGYWGQGTQVTVSS”, the “polyreactivity (PSR sort gate)” value was “low polyreactivity”.
With “QVQLVESGGGLVQAGGSLRLSCAASGRTFMRNAMGLYRQAPGKERELVAAISRSGGSTYYADSVKGRFTISRDNAKNTVYLQMNSLKPEDTAVYYCAADDYGGYYYWGQGTQVTVSS” the “polyreactivity (PSR sort gate)” value was “high polyreactivity”.
In the case of “QVQLVESGGGLVQAGGSLRLSCAASGRTFNAMGWSRQAPGKERELVASISRRGGSTSYADSVKGRFTISRDNAKNTVYLQMYSLKPEDTAVYYCAARVGWVRYGYWGQGTQVTVSS”, the “polyreactivity (PSR sort gate)” value is reported as “low polyreactivity”.
In the case of “QVQLVESGGGLVQAGGSLRLSCAASGRTFNDYTMGWYRQAPGKERELVAAISSSGVRTYYADSVKGRFTISRDNAKNTVYLQMNSLKPEDTAVYYAKRAGYDRRWTYDYWGQGTQVTVSS”, the “polyreactivity (PSR sort gate)” value is reported as “high polyreactivity”.
For “QVQLVESGGGLVQAGGSLRLSCAASGRTFNFYAMGWYRQAPGKERELVATISGGVSTYYADSVKGRFTISRDNAKNTVYLQMNSLKPEDTAVYYCAKDSGYPQWDLDYWGQGTQVTVSS”, the “polyreactivity (PSR sort gate)” value was “high polyreactivity”.
With “QVQLVESGGGLVQAGGSLRLSCAASGRTFNGDAMGWYRQAPGKERELVAAISSSGGSTYYADSVKGRFTISRDNAKNTVYLQMNSLKPEDTAVYYCAARRANGFNYWGHGTQVTVSS” the “polyreactivity (PSR sort gate)” value was “high polyreactivity”.
With “QVQLVESGGGLVQAGGSLRLSCAASGRTFNGNTMGWYRQAPGKERQLVAAISRNGGRTYYADSVKGRFTISRDNAKNTVYLQMNSLKPEDTAVYYCATVYRPGGVYGYWGQGTQVTVSS” the “polyreactivity (PSR sort gate)” value was “high polyreactivity”.
In the case of “QVQLVESGGGLVQAGGSLRLSCAASGRTFNGYAMGWYRQAPGKERELVAGISWRGTSTYYADSVKGRFTISRDNAKNTVYLQMNSLKPEDTAVYYCAADVWRVQHRGYNYWGQGTQVTVSS”, the “polyreactivity (PSR sort gate)” value is reported as “high polyreactivity”.
For “QVQLVESGGGLVQAGGSLRLSCAASGRTFNGYVMGWYSQAPGKEREFVAVINWSGGNTYYADSVKGRFTISRDNAKNTVYLQMNSLKPEDTAVYYCAARRVRSYAYDYWGQGTQVTVSS”, the “polyreactivity (PSR sort gate)” value was “high polyreactivity”.
With “QVQLVESGGGLVQAGGSLRLSCAASGRTFNIYAMGWYRQAPGKERELVAAITWRSGSTYYADSVKGRFTISRDNAKNTVYLQMNSLTPEDTAVYYCAAEQWSCVPEFDYWGQGTQVTVSS” the “polyreactivity (PSR sort gate)” value was “high polyreactivity”.
For “QVQLVESGGGLVQAGGSLRLSCAASGRTFNIYAMGWYRQAPGKVRELVAAISSGGSTYYADSVKGRFTISRDNAKNTVYLQMNSLKPEDTAVYYCAAVEFELRGDYWGQGTQVTVSS”, the “polyreactivity (PSR sort gate)” value was “low polyreactivity”.
In the case of “QVQLVESGGGLVQAGGSLRLSCAASGRTFNPYVMGWYRQAPGKERELVARIRGSGTSTYYADSVKGRFTISRDNAKNTVYLHMNSLKPEDTAVYYCAAAQSKYSFYWGDYYYWGQGTQVTVSS”, the “polyreactivity (PSR sort gate)” value is reported as “high polyreactivity”.
In the case of “QVQLVESGGGLVQAGGSLRLSCAASGRTFNRNAMGWYRPAPGKERELVAAISWGGSRTYYADSVKGRFTISRDNAKNTVYLQMNSLKPEDTAVYYCAVDGFRGRSHGANDYWGQGTQVTVSS”, the “polyreactivity (PSR sort gate)” value is reported as “high polyreactivity”.
In the case of “QVQLVESGGGLVQAGGSLRLSCAASGRTFNRNAMGWYRQAPGKERELVAAISWGGSRTYYADSVKGRFTISRDNAKNTVYLQMNSLKPEDTAVYYCAVDGFRGRSHGANDYWGQGTQVTVSS”, the “polyreactivity (PSR sort gate)” value is reported as “high polyreactivity”.
For “QVQLVESGGGLVQAGGSLRLSCAASGRTFNRNAMGWYRQAPGKERELVAAISWGGSRTYYADSVKGRFTISRDTAKNTVYLQMNSLKPEDTAVYYCAVDGFRGRSHGANDYWGQGTQVTVSS”, the “polyreactivity (PSR sort gate)” value was “high polyreactivity”.
For “QVQLVESGGGLVQAGGSLRLSCAASGRTFNRNTMGWYRQAPGKERELVAGITKRGGSTYYADSVKGRFTISRDNAKNTVYLQMNSLKPEDTAVYYCNAATNGSPPDYDYWGQGTQVNVSS”, the “polyreactivity (PSR sort gate)” value was “high polyreactivity”.
In the case of “QVQLVESGGGLVQAGGSLRLSCAASGRTFNRYAMGWYRQAPGKERELVAAINSVGSTYYADSVKGRFPISRDNAKNTVYLQMNSLKPEDTAVYYCNAVQGSRFGYWGQGTQVTVSS”, the “polyreactivity (PSR sort gate)” value is reported as “high polyreactivity”.
With “QVQLVESGGGLVQAGGSLRLSCAASGRTFNRYAMGWYRQAPGKERELVAAISYGGGRTYYADSVKGRFTISRDNAKNTVYLQMYSLKPEDTAVYYCNAVFGYQSPGGYDYWGQGTQVTVSS” the “polyreactivity (PSR sort gate)” value was “high polyreactivity”.
With “QVQLVESGGGLVQAGGSLRLSCAASGRTFNSNAMGWYRQAPGKERELVAAISGRTGRTYYADSVKGRFTISRDNAKNTVYLQMNSLKPEDTAVYYCATGTYAAAQGTRYYYWGQGTQVTVSS” the “polyreactivity (PSR sort gate)” value was “high polyreactivity”.
For “QVQLVESGGGLVQAGGSLRLSCAASGRTFNSYAMGWYRPAPGKERELVATISSRGGNTFYADSVKGRFTISRDYAKNTVYLQMNRLKPEDTAVYYCAKPGYLRPSRYDYWGQGTQVTVSS”, the “polyreactivity (PSR sort gate)” value was “high polyreactivity”.
With “QVQLVESGGGLVQAGGSLRLSCAASGRTFNTNAMGWYRQAPGKERELVAAITRSGDSTYYADSVKGRFTISRDNAKNTVYLQMNSLKPEDTAVYYCAAYSRTLYPDRYYWGHGTQVTVSS” the “polyreactivity (PSR sort gate)” value was “high polyreactivity”.
